In US20100222258A1 (KABUSHIKI KAISHA HAYASHIBARA SEIBUTSU KAGAKU KENKYUJO, published 2010):

T1: TNF-R1 (a protein having the amino acid sequence, Accession No. M58286 registered at GENBANK) (UniProt P19438 30-211, limits assumed)
T1 construct: also called TNF receptor having a molecular weight of 55 kilo daltons
T1 sequence (looked up): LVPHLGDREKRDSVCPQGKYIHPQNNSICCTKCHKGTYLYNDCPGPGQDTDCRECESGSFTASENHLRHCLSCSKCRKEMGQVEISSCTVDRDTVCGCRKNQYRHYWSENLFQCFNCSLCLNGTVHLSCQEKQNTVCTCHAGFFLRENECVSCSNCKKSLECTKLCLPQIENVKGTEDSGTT

T2: TNF-R2 (a protein having the amino acid sequence, Accession No. M55994 registered at GENBANK) (UniProt P20333 23-257, limits assumed)
T2 construct: also called TNF receptor with 75 kilo daltons
T2 sequence (looked up): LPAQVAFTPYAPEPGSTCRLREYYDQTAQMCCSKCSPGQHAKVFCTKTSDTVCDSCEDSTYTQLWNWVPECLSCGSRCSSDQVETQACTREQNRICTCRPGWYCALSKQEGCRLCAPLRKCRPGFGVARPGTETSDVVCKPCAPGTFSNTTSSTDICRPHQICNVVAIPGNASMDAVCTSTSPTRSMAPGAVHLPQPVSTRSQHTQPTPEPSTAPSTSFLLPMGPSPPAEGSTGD

B1: TNF mutant protein of clone No. 2 (ligand)
chain: VRSSSRTPSDMPVAHVVANPQAEGQLQWTNGYANALLANGVELRDNQLVVPSEGLYLIYSQVLFSGQGCPSTHVLLTHTISRIAVSYQTPVNLLSAIRSPCQRETPEGAEANPWYEPIYLGGVFQLEPGDRLSAEINRPDYLDFAESGQVYFGIIAL
notes: Mutant of lysine-replaced TNF, made in E. coli
B2: TNF mutant protein of clone No. 34 (ligand)
chain: VRSSSRTPSDMPVAHVVANPQAEGQLQWLNRRANALLANGVELRDNQLVVPSEGLYLIYSQVLFSGQGCPSTHVLLTHTISRISADYPHPVNLLSAIRSPCQRETPEGAEANPWYEPIYLGGVFQLEPGDRLSAEINRPDYLDFAESGQVYFGIIAL
notes: as for B1
B3: TNF mutant protein of clone No. 32 (ligand)
chain: VRSSSRTPSDMPVAHVVANPQAEGQLQWLNRRANALLANGVELRDNQLVVPSEGLYLIYSQVLFSGQGCPSTHVLLTHTISRITDRYSSPVNLLSAIRSPCQRETPEGAEANPWYEPIYLGGVFQLEPGDRLSAEINRPDYLDFAESGQVYFGIIAL
notes: as for B1
B4: TNF mutant protein of clone No. 8 (ligand)
chain: VRSSSRTPSDMPVAHVVANPQAEGQLQWRNEHANALLANGVELRDNQLVVPSEGLYLIYSQVLFSGQGCPSTHVLLTHTISRIAVSYQTPVNLLSAIRSPCQRETPEGAEANPWYEPIYLGGVFQLEPGDRLSAEINRPDYLDFNNAGQVYFGIIAL
notes: as for B1
B5: TNF mutant protein of clone No. 7 (ligand)
chain: VRSSSRTPSDMPVAHVVANPQAEGQLQWHNNTANALLANGVELRDNQLVVPSEGLYLIYSQVLFSGQGCPSTHVLLTHTISRIAVSYQTPVNLLSAIRSPCQRETPEGAEANPWYEPIYLGGVFQLEPGDRLSAEINRPDYLDFDSNGQVYFGIIAL
notes: as for B1
B6: TNF mutant protein of clone No. 16 (ligand)
chain: VRSSSRTPSDMPVAHVVANPQAEGQLQWLNRRANALLANGVELRDNQLVVPSEGLYLIYSQVLFSGQGCPSTHVLLTHTISRISSTYPDPVNLLSAIRSPCQRETPEGAEANPWYEPIYLGGVFQLEPGDRLSAEINRPDYLDFAESGQVYFGIIAL
notes: as for B1
B7: TNF mutant protein of clone No. 30 (ligand)
chain: VRSSSRTPSDMPVAHVVANPQAEGQLQWLNRRANALLANGVELRDNQLVVPSEGLYLIYSQVLFSGQGCPSTHVLLTHTISRITPGYPSPVNLLSAIRSPCQRETPEGAEANPWYEPIYLGGVFQLEPGDRLSAEINRPDYLDFAESGQVYFGIIAL
notes: as for B1
B8: TNF mutant protein of clone No. 9 (ligand)
chain: VRSSSRTPSDMPVAHVVANPQAEGQLQWSNPMANALLANGVELRDNQLVVPSEGLYLIYSQVLFSGQGCPSTHVLLTHTISRIAVSYQTPVNLLSAIRSPCQRETPEGAEANPWYEPIYLGGVFQLEPGDRLSAEINRPDYLDFANPGQVYFGIIAL
notes: as for B1
B9: TNF mutant protein of clone No. 27 (ligand)
chain: VRSSSRTPSDMPVAHVVANPQAEGQLQWLNRRANALLANGVELRDNQLVVPSEGLYLIYSQVLFSGQGCPSTHVLLTHTISRITPAYPRPVNLLSAIRSPCQRETPEGAEANPWYEPIYLGGVFQLEPGDRLSAEINRPDYLDFAESGQVYFGIIAL
notes: as for B1
B10: TNF mutant protein of clone No. 20 (ligand)
chain: VRSSSRTPSDMPVAHVVANPQAEGQLQWLNRRANALLANGVELRDNQLVVPSEGLYLIYSQVLFSGQGCPSTHVLLTHTISRISSAYASPVNLLSAIRSPCQRETPEGAEANPWYEPIYLGGVFQLEPGDRLSAEINRPDYLDFAESGQVYFGIIAL
notes: as for B1

Columns and labels:
[1] = target: T1, TNF-R1 (a protein having the amino acid …); experiment: SPR (BIACORE 2000), receptor on sensor tip; grade 3 = 0.5 to 2 times that of recombinant TNF-α
Text: (§1) Using the above detector based on surface plasmon resonance effect again, the resulting clones binding to TNF-R1 (or TNF-R2) were subjected to the remaining sensor tip conjugated with TNF-R2 (or TNF-R1) to measure receptor binding affinity and select clones having a variation of receptor binding affinity. […] The resulting DNAs were digested with restrict enzymes NdeI and BamHI to obtain DNA fragments. The resulting DNA fragments were introduced into a plasmid vector containing T7 promoter region, T7 terminator region, ampicillin resistant gene region and ColE1/Ori region (product name “pET-3a”, manufactured by “Novagen®” (EMD Biosciences, Inc.)) at the position of the above restriction sites. The resulting plasmid was introduced into E. coli BL21DE3 strain to obtain a transformed E. coli for producing the TNF mutant proteins. The obtained transformed E. coli was cultured according to usual method and centrifuged to collect E. coli pellet. The resulting pellet was washed twice with TES buffer (pH 8.0) (20 mM Tris-HCl, 10 mM ethylene diamine tetraacetic acid and 0.5 M sodium chloride) and admixed with TES buffer (pH 8.0) containing 0.2 mg/ml lysozyme. The resulting suspension was sonicated according to usual manner, and centrifuged to collect a precipitate containing the produced TNF mutant protein. The resulting precipitate was treated three times in a manner of admixing with TES buffer containing 1 (w/w) % Triton X-100, removed from supernatant by centrifuging, admixed with 50 mM Tris-HCl (pH 7.0) containing 8 M guanidine hydrochloride and 50 mM dithiothreitol, with stirring for 16 hours at ambient temperature under shielded condition, and centrifuged to collect a supernatant. The resulting supernatant was gently admixed with 100 time volumes of a aqueous solution containing 1 M Tris, 0.9 (w/v) % sodium chloride, 0.4 M L-arginine chloride, 2.5 mM reduced glutathione, 0.5 mM oxidized glutathione and 0.05 (w/v) % Tween 20, and kept at 4° C. for 16 hours.

[2] = target: T2, TNF-R2 (a protein having the amino acid …); experiment: SPR (BIACORE 2000), receptor on sensor tip; grade 2 = 0.5 to 0.1 time that of recombinant TNF-α
Text: as §1

[3] = target: T1, TNF-R1 (a protein having the amino acid …); experiment: SPR (BIACORE 2000), receptor on sensor tip; grade 4 = two times or more that of recombinant TNF-α
Text: as §1

[4] = target: T1, TNF-R1 (a protein having the amino acid …); experiment: SPR (BIACORE 2000), receptor on sensor tip; grade 2 = 0.5 to 0.1 time that of recombinant TNF-α
Text: as §1

[5] = target: T2, TNF-R2 (a protein having the amino acid …); experiment: SPR (BIACORE 2000), receptor on sensor tip; grade 1 = 0.001 to 0.1 time that of recombinant TNF-α
Text: as §1

Binder | binding affinity relative to recombinant TNF-α [1] [fold] | binding affinity relative to recombinant TNF-α [2] [fold] | binding affinity relative to recombinant TNF-α [3] [fold] | binding affinity relative to recombinant TNF-α [4] [fold] | binding affinity relative to recombinant TNF-α [5] [fold]
B1 | 0.5 to 2 | 0.1 to 0.5 | – | – | –
B2 | 0.5 to 2 | 0.1 to 0.5 | – | – | –
B3 | – | 0.1 to 0.5 | ≥ 2 | – | –
B4 | – | – | – | 0.1 to 0.5 | 0.001 to 0.1
B5 | – | – | – | 0.1 to 0.5 | 0.001 to 0.1
B6 | – | 0.1 to 0.5 | ≥ 2 | – | –
B7 | 0.5 to 2 | 0.1 to 0.5 | – | – | –
B8 | – | – | – | 0.1 to 0.5 | 0.001 to 0.1
B9 | 0.5 to 2 | 0.1 to 0.5 | – | – | –
B10 | 0.5 to 2 | 0.1 to 0.5 | – | – | –
